Test: yeast display, Sf9 membrane polyspecificity reagent, FACS + sequencing; frameworks hold sequencing errors
Summary of the method: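 A synthetic nanobody library was expressed on Saccharomyces cerevisiae BJ5465 by galactose induction for 36–48 hours. The library was stained for 1 hour at 4 °C with 10% biotinylated, detergent-solubilized Sf9 membrane reagent and enriched with streptavidin microbeads before FACS. Low and high (top ~1%) gates were set on anti-HA fluorescence for expression and streptavidin fluorescence for reagent binding, and each polyreactivity label reflects the gate of origin.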

Sequence	polyreactivity (PSR sort gate)
QVQLVESGGCLVQAGGSLRLSCAAYGSIFGGNAMGWYRQAPRKERELVAAITQSGDRTYYADSVKGRFTISRDNANNTFYFQMNSLKPEDTAVYYSAARSPRKYGSIGYYWGQGTQVTVSS	high polyreactivity
QVQLVESGGCLVQAGGSLRLSCASSGFTIWQNAMGWYRQAPGKERELVAGIRLSGGSTYADSEKGRFTISRDNAKNTVYLQMNSLKPEDTAVYYCAARIAGYYRYRSLRYDYWGQGTQGTVSS	high polyreactivity
QVQLVESGGCLVQAGGSLRLSGAASGSISYRNSMGWYRQAPGKERELVAAISSRGGSTFYADSEKGRFTISRDNAKNTVYLQMNSLKPEDTAVYYCAARGYHRFKNVNYWGQGTQVTVSS	high polyreactivity
QVQLVESGGCLVQAGGSLRLSSAASGSTFRVNAMGWYRQAPGKERELVAAISFSGGSTYYADSVKGRFTISRDNAKNTVYLQMNSLKPEDTAVYYCNVDIYLGGDYYYSRYTWGLDYWGQGTQVTVSS	low polyreactivity
QVQLVESGGCLVQAGGSLSLSCAASGFTFTYYDMGWYRQAPGKERELVAAITRRGGRTYYADSVKGRFTISRDNAKNTVYLQMNSLKPEDTAVYYCNADEYGGSTGRKGRYNYWGQGTQVTVSS	low polyreactivity
QVQLVESGGCLVQAGGSPRLSCAASGSILTLYAMGWYRQAPGKERELVAAITSGERTNYADSVKGRFTISRDNAKNTVYLQMNSLKPEDTAVYYCATKRWWGRYDYWGQGTQVTVSS	high polyreactivity
QVQLVESGGCLVQAGGTLRLSCAASGRIFVSYVMGWYSQAPGKEREFVAAIRRSGSSTYYADSVKGRFTISRDNEKNTVYLQMNSLKPEDTAVFYCAAYQRSRTLRRYDYWGQGTEVTVSS	high polyreactivity
QVQLVESGGCLVQARGSLRLSCASSGRMISYNAMGWYRQRPGKDMELGAAINSSGGSTYDADSVKGRFTISRDNAKNTVSLQMNSLKAEDTAFYYCNVLHIPSTTMDYWPQGTQVTVSS	high polyreactivity
QVQLVESGGDLVQAGGSLRLSCAASGSIFCYYVMGWYRQAPGKERELVAAITVSGAGTYNADSVKGRFTISRDNAKNTVYLQMNSLKPEDTAVYYCAARWLGHFYPFFLQGLSGFDYWGQGTQVTVSS	low polyreactivity
QVQLVESGGGFDQAGGSLRLSCAASGITFYDNVMGSYIQAPGKERELVAAITSGGSTNYSDSVKGRFTISRANAKNTVYLQMNSLKPEDTAVYYCAATPYGIGYDYWGQGTEVTVSS	low polyreactivity
QVQLVESGGGFGQAGGSLRLSCAASGFTCGYYAMGWFRQAPGKERELVASISSRGGSTNYADSVKGRFTISRDHAKNTVYLQMNTMKPEDTAVYYCAAEYYRQRYEYDYWRQGTQVTVSS	high polyreactivity
QVQLVESGGGFVQAGGSHRLSCAASGRIFSCNAMGWYRQAPGKERELVAAITWRGTSTYYADSVKGRFTISRDNAKNTVYLQMNSLKPEDTAVYYWNGDYYYPADGRHYHYDYWGQGTQVTVSS	low polyreactivity
QVQLVESGGGFVQAGGSLRFSCAAYGSTFNQYAMGWYRQAPGKEREFVASITFSGGRTYYADSVQGRFTLSRDNEQNTVYLQMNSLKTEDPAVSYCNAVGYTPRKPSKFDYRGQGTQVTVSS	low polyreactivity
QVQLVESGGGFVQAGGSLRLICAASGRIFGYYAMAWYRQAPGQERELVAAINWGGGITYYADSVKGRFTISRDNAKNTVYLQMNSLKPEDTAVYYCATDYKLVYSIYDYWGQGTQVTVSS	low polyreactivity
QVQLVESGGGFVQAGGSLRLSCAASGFTFRKYARGWYRQAPGNERELVAVINIVGSTYYADSVKGRFTISRDNAKNTVYLQMNSLKPEDTAVYYCAADWSYRLKYYWYGGFNYWGQGTQVTVSS	high polyreactivity
QVQLVESGGGFVQAGGSLRLSCAASGFTFWRYTMGWYRQAPGKERELVAAINWSGGRTYYADSVKARFTISRDNAKNTVYLQMNSLTPEDTAVYYCATGYSTSVGGSQGDSWGQGTQVTVSS	high polyreactivity
QVQLVESGGGFVQAGGSLRLSCAASGIIFDYNAMGWYRQAHGKERELVAAISGRSGRTYYADSVKGRFTISRDNAKNTVYLQMNSLKPEDTAVYYCAARWYAGGNYWGQGTQVTVSS	high polyreactivity
QVQLVESGGGFVQAGGSLRLSCAASGLIFSWYDMGWYRQAPGKERELVAAITTDGDDTYYADSVKGRFTISRDNAKNTVYLQMNSLKPEDTAVYYCAADSELAIRYPDRDYDSWGQGTQVTVSS	low polyreactivity
QVQLVESGGGFVQAGGSLRLSCAASGLTFYGNVMGWYRQAPGKERELVAAITRRGTSTYYADSVKGRFTLSRDYAKNTVYLQMNRLKPEDTAFYYCAAGTAYSRFGYWGQGTQVTVSS	high polyreactivity
QVQLVESGGGFVQAGGSLRLSCAASGRIFLTNAMGWYRQAPGKERELVAAITSGGSTYYADSVKGRFTISRDNAKNTVYLQMNSLKPEDPAVYYCNADTDRYSPYEYDFWGQGTQVTVSS	low polyreactivity
QVQLVESGGGFVQAGGSLRLSCAASGRIFPGYAKGWYRQAPGKERELVAAISASGGSTYYADSVKGRFTISRDNAKNTVYLQMNSLKPEDTAVYYCNAVYRRYEYWGQGTQVTVSS	high polyreactivity
QVQLVESGGGFVQAGGSLRLSCAASGRIFPWNTMGWYRQATGNERELVAGITSGGSTNYADSVKGRFTISRDNAKNTVYLQMNSLKPEDTAVYNCAARGYYWYISGVYEYEYWGQGTQVTVSS	low polyreactivity
QVQLVESGGGFVQAGGSLRLSCAASGRIFYNYAMGWYRQAPGKERELVAAMSGSGGSTYYADSVKGRFTISRDNAKNTVYLQMNSLKPEDTAVYYCSTSGPQYYSRNVDYWGQGTQVTVSS	low polyreactivity
QVQLVESGGGFVQAGGSLRLSCAASGSIFWLYDMGWYRQAAGKVRELVAAISWSTGGTYYADSVKGRFTISRENAKNTVYLQMNSLKPEDTAVYYCNAETYDQYNYWGQGTQVTVSS	low polyreactivity
QVQLVESGGGFVQAGGSLRLSCAASGSILSGYAMGWYRPAPGKERELVAAITSGGDTNYADSVKGRFTISRDNAKNTVYLQMNSLKPEDTAVYYCNRRGDFRIAYYDPMDYWGQGTQVTVSS	low polyreactivity
QVQLVESGGGFVQAGGSLRLSCAASGSTFGYYVMGWYRQAPGKERELVAAISASGGSTYYADSVKGRFTISRDNAKHTVYLQMNSLKPEDTAVYYCAAGGYYVRYDYWGQGTQVTVSS	high polyreactivity
QVQLVESGGGFVQAGGSLRLSCAASGSTFRFYAMGWYRQAPGKERELVAAINGSGGSTYYADSVKGRFTISRDNAKNTVYLQMNSLKPEDTAVYYCAAESNTGPGEDYWGQGTQVTVSS	low polyreactivity
QVQLVESGGGFVQAGGSLRLSCAASGYTLRIYAMGWYRQAPGKERELVAAISRSGGRTFYADSVKGRFTISRDNAKNTVYLQMNSLKPEDSAVYYCAAVPRSYDTGRMDYWGQGTQVTVSS	high polyreactivity
QVQLVESGGGFVQAGGSLRLSCASSGRIFRGYTMGWYRQAPGKEREFVAAIRRSGGTTYYADSVKRRFTISRDNAKNTVYLQMNSLKPEDTAVYYCAAGYPGFTYQRRKYDYWGQGTQVTVSS	high polyreactivity
QVQLVESGGGFVQAGGSLRVSCAASGSIFGSYAMGWYRQAPGKERELVADISSGGSTNYADSVKGRFTISRDNAKNTVYLQMNSLKPEDTAVYYCNADDPAGYLYWWGSWLESDYWGQGTQGTVSS	low polyreactivity

Reference: the nanobody polyreactivity screen of Harvey et al. (2022)
